Data published in US20110172153A1.

Columns and labels:
[1] = target: rat parathyroid hormone receptor (PTHR) (UniProt P25961); test: competition binding; RG conformation
[2] = target: rat parathyroid hormone receptor (PTHR) (UniProt P25961); test: competition binding; R0 conformation

Sequence of rat parathyroid hormone receptor (PTHR) (P25961 27-591): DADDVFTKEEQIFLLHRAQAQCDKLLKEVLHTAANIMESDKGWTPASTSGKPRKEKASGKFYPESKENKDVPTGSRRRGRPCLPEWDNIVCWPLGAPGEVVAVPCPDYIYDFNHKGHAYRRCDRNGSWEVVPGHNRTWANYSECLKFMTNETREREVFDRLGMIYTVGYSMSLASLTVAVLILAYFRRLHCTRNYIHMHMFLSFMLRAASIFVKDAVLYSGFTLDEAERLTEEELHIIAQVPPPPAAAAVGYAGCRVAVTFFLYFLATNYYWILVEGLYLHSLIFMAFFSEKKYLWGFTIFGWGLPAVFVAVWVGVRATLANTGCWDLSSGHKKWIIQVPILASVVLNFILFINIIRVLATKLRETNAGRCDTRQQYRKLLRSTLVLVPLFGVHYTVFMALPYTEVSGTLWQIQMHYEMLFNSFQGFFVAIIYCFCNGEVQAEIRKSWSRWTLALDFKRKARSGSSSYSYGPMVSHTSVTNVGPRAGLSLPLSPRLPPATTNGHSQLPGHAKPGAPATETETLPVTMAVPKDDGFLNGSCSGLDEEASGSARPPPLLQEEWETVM

IC50 [1] | IC50 [2] | Substance
4.8 nM | 197 nM | H5,E19,Mc-hPTH(1-14)/rP(15-36)OH
1.41 nM | 1390 nM | H5,E19,Mc-hPTH(1-34)OH
1.7 nM | 9 nM | H5,Mc-hPTH(1-14)/rP(15-36)OH
0.32 nM | 26 nM | H5,Mc-hPTH(1-34)OH
0.73 nM | 1.8 nM | Mc-PTH(1-11)/PTHrP(12-36)OH
0.81 nM | 1.3 nM | Mc-PTH(1-14)/PTHrP(15-36)OH
0.82 nM | 1.4 nM | Mc-PTH(1-18)/PTHrP(19-36)OH
0.56 nM | 1.9 nM | Mc-hPTH(1-34)OH
0.49 nM | 20.3 nM | [A^23,E^19],Mc-hPTH(1-34)OH
0.57 nM | 2.33 nM | [E^19],Mc-hPTH(1-34)OH
1.02 nM | 2.3 nM | [I^5]-PTHrP(1-36)
0.44 nM | 20 nM | hPTHrP(1-36)
